Test results from publication PMC9520032.

Biological target: Vibrio cholerae cytolysin E289A mutant, mature form (Vibrio cholerae)
Assay: cryo-EM structure

Vibrio cholerae cytolysin E289A mutant, mature form (natural protein)
stoichiometry N: 7
